Measurements published in article PMC9342713.

Target: T1, DitR (Stenotrophomonas maltophilia K279a) (UniProt B2FL17)
T1 sequence: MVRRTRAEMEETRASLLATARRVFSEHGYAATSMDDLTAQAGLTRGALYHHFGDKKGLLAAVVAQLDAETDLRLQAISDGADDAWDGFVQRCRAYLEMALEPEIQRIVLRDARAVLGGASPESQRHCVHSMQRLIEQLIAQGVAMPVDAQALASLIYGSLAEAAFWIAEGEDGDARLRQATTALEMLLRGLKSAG
Test: DNase I footprinting

Row | Sequence | binding
1 | GGGGGCGGCGAACAGGTCGCGGTAGGGGGTGGCCATCGGGATCTCCAGGGCAGCGGCTTGCCTGGCGCTCCCGGCGCCACGACAATACATACAGAGCGTATGAATAAGAGCCTACATTCATACGCGTCGTATGTAAATAATCATGCACTGCGTATGTAAGGAGCTCCGGATGGTCCGTCGCACCCGCGCCGAAATGGAAGAAAC (double strand) [mfsBC promoter fragment, 204 bp, Box II] | binds
2 | GGGGGCGGCGAACAGGTCGCGGTAGGGGGTGGCCATCGGGATCTCCAGGGCAGCGGCTTGCCTGGCGCTCCCGGCGCCACGACAATACATACAGAGCGTATGAATAAGAGCCTACATTCATACGCGTCGTATGTAAATAATCATGCACTGCGTATGTAAGGAGCTCCGGATGGTCCGTCGCACCCGCGCCGAAATGGAAGAAAC (double strand) [mfsBC promoter fragment, 204 bp, Box I] | binds
